In US20230047413A1 (Janssen / Centocor, published 2023):
Non-standard residues stand in square brackets, D forms with d. *: point of attachment. Biotin = O=C1N[C@H]2[C@H](CS[C@H]2CCCCC(=O)*)N1; pT = C[C@@H](OP(=O)(O)O)[C@H](N)C(=O)O; pS = N[C@@H](COP(=O)(O)O)C(=O)O; dPEG4 = PEG4 moiety

How the values were obtained:
Peptide-2 [1] = target: T1, Peptide-2 (human, phosphothreonine 212, phosphothreonine 217 (tau 2N4R numbering); short chain biotin (SCBiot) and dPEG4 at the N-terminus; amide at the C-terminus); assay: SPR ProteOn, peptide captured, Fab as analyte; range of n=2; Peptide-2 (pT212/pT217); Table 6 run; lower end of n=2 range
T1 construct: also called pT212/pT217-tau peptide (Peptide-2)

Peptide-6 [2] = target: T2, Peptide-6 (human, phosphothreonine 217 (tau 2N4R numbering); SCBiot and dPEG4 at the N-terminus; amide at the C-terminus); assay: SPR ProteOn, peptide captured, Fab as analyte; Peptide-6, phosphorylated at 217 only
Method: (§1) The binding affinity of PT3 Fab towards each of the fourteen tau phosphopeptides shown in Table 6 was assessed by surface plasmon resonance (SPR) using a Bio-Rad ProteOn XPR36. Peptides were synthesized by standard chemical methods (New England Peptide) with short-chain biotin and a PEG4 moiety at the N-terminus. Biotinylated peptide was captured on a neutravidin-coated NLC biosensor chip and PT3 Fab was flowed over the surface to measure kinetic parameters.
(§2) All experiments were performed at 25° C. using phosphate buffered saline, pH 7.4, 0.005% Tween 20 (PBST) as both running buffer and sample dilution buffer. Prior to running samples, the NLC chip was conditioned by running PBST over the chip surface for 1 h. Approximately 5-10 RU of peptide was captured on the chip surface by diluting peptide to 10 ng/mL in PBST and injecting over the flow channels at 30 μL/min for 100 s. Serial dilutions of PT3 Fab (1.1-90 nM) were analyzed and, with the exception of Peptide-8, each concentration was measured in duplicate. After capture of peptides, the antibody titration was injected at 60 μL/min for 3 minutes (association phase), followed by 300 s of buffer only (dissociation phase).
The data were double referenced by subtraction of the interspot response and the curves generated by the buffer-only injection. […] The data were analyzed using a simple Langmuir 1:1 binding model.

Peptide-2 [3] = target: T1, Peptide-2; assay: SPR ProteOn, peptide captured, Fab as analyte; Peptide-2 (pT212/pT217); separate run of Table 12 (HFA Fab comparison), n=2
Method: (§3) A subset of HFA-PT3 monoclonal antibody variants, selected based on biophysical characterization and ELISA binding to PHF, were analyzed by Surface Plasmon Resonance (SPR) with a ProteOn XPR36 for binding to the following phosphopeptides: pT212/pT217-tau peptide (Peptide-2, SEQ ID NO: 48) and pT212-tau peptide (Peptide-8, SEQ ID NO: 54). All experiments were performed at 25° C. using PBST, pH 7.4, (Bio-Rad Cat#176-2720) as both running buffer and sample dilution buffer.
(§4) Fab/peptide binding. Biotinylated peptide was captured on a neutravidin-coated NLC biosensor chip pre-conditioned with PBST, and Fab was flowed over the surface to measure kinetic parameters. Approximately 5-10 RU of peptide was captured on the chip surface by diluting peptide to 10 ng/mL in PBST and injecting over the flow channels at 30 μL/min for 100 s. Serial dilutions of PT3 Fab (1.1 nM to 90 nM) were injected at 60 μL/min for 3 minutes (association phase), followed by 300 s of buffer only (dissociation phase).
(§5) Data were double referenced by subtraction of the interspot response, and the curves generated by the buffer only injection. The chip surface was regenerated with 0.85% phosphoric acid, followed by PBST injection before the next antibody titration injection. Data processing and analysis were performed using instrument software. The data were fit using a simple Langmuir 1:1 binding model.

Peptide-2 [4] = target: T1, Peptide-2; assay: SPR ProteOn, peptide captured, Fab as analyte
Method: as §3, §4, §5

Peptide-8 = target: T3, Peptide-8 (human, phosphothreonine 212 (tau 2N4R numbering); SCBiot and dPEG4 at the N-terminus; amide at the C-terminus); assay: SPR ProteOn, peptide captured, Fab as analyte; n=1
T3 construct: also called pT212-tau peptide (Peptide-8)
Method: as §1, §2
(§6) The data were double referenced by subtraction of the interspot response and the curves generated by the buffer-only injection. The chip surface was regenerated using a single injection of 0.85% phosphoric acid at 30 μL/min for 100 s contact time, followed by four injections of running buffer before the next antibody titration injection. The data processing and kinetic analysis were done using the instrument software. The data were analyzed using a simple Langmuir 1:1 binding model.

Peptide-6 [5] = target: T2, Peptide-6; assay: SPR ProteOn, peptide captured, Fab as analyte
Method: as §1, §2, §6

Peptide-11 = target: T4, Peptide-11 (human); assay: SPR ProteOn, peptide captured, Fab as analyte
T4 peptide: {Biotin-dPEG4}-SPGTPG[pS]RSR[pT]P[pS]LPTPPT-NH2
Method: as §1, §2, §6

Peptide-5 [6] = target: T5, Peptide-5 (human, phosphoserine 210, phosphoserine 214, phosphothreonine 217 (tau 2N4R numbering); SCBiot and dPEG4 at the N-terminus; amide at the C-terminus); assay: SPR ProteOn, peptide captured, Fab as analyte
Method: as §1, §2, §6

Peptide-3 = Peptide-3 (human, phosphoserine 214, phosphothreonine 217 (tau 2N4R numbering); SCBiot and dPEG4 at the N-terminus; amide at the C-terminus); assay: SPR ProteOn, peptide captured, Fab as analyte
Method: as §1, §2, §6

Peptide-1 = target: T6, Peptide-1 (human, phosphothreonine 212, phosphoserine 214, phosphothreonine 217 (tau 2N4R numbering); short chain biotin (SCBiot) and dPEG4 at the N-terminus; amide at the C-terminus); assay: SPR ProteOn, peptide captured, Fab as analyte
T6 construct: also called tau peptide phosphorylated at T212/S214/T217
Method: as §1, §2, §6

Peptide-4 = Peptide-4 (human, phosphoserine 210, phosphothreonine 217 (tau 2N4R numbering); SCBiot and dPEG4 at the N-terminus; amide at the C-terminus); assay: SPR ProteOn, peptide captured, Fab as analyte
Method: as §1, §2, §6

Peptide-5 [7] = target: T5, Peptide-5; assay: SPR ProteOn, peptide captured, Fab as analyte; range of n=2; lower end of n=2 range
Method: as §1, §2, §6

T1 sequence (peptide, as listed by the source): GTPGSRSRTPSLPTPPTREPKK

Kd (Peptide-2 [1]): 0.09 to 0.45 nM
Kd (Peptide-6 [2]): 11.4 nM
Kd (Peptide-2 [3]): 0.0874 nM
koff (Peptide-2 [4]): 6.39e-05 s⁻¹
kon (Peptide-2 [4]): 776000 M⁻¹ s⁻¹
Kd (Peptide-8): 23 nM
koff (Peptide-8): 0.00646 s⁻¹
kon (Peptide-8): 281000 M⁻¹ s⁻¹
koff (Peptide-6 [5]): 0.00616 s⁻¹
kon (Peptide-6 [5]): 541000 M⁻¹ s⁻¹
binding result (Peptide-11): no binding (tested: 1.1-90 nM)
koff (Peptide-5 [6]): 0.00584 s⁻¹
kon (Peptide-5 [6]): 704000 M⁻¹ s⁻¹
koff (Peptide-3): 0.00547 s⁻¹
kon (Peptide-3): 1.04e+06 M⁻¹ s⁻¹
koff (Peptide-1): 0.00028 s⁻¹
kon (Peptide-1): 1.27e+06 M⁻¹ s⁻¹
koff (Peptide-4): 0.00627 s⁻¹
kon (Peptide-4): 968000 M⁻¹ s⁻¹
koff (Peptide-5 [7]): 0.00569 s⁻¹
kon (Peptide-5 [7]): 545000 M⁻¹ s⁻¹
B1: PT3 Fab (B187) (Fab, V domains shown)
VH: EVKLVESGGDLVKPGGSLKLSCAASGFTFSSYAMSWVRQNPEKRLEWVASISKGGNTYYPNSVKGRFTISRDNARNILYLQMSSLRSEDTALYYCARGWGDYGWFAYWGQVTLVTVSA
VL: DIKMTQSPSSMYASLGERVTITCKASQDINRYLNWFQQKPGKSPKTLIYRANRLLDGVPSRFSGSGSGQDYSLTISSLDYEDMGIYYCLQYDEFPLTFGDGTKLELK
notes: Chimeric Fab: mouse variable regions, human IgG1/kappa constant region, 6xHis tag at the C-terminus of the heavy chain; also called mouse parental Fab of PT3
